# Data as given in patent US20050113303.
# B1: recombinant human PEX protein (full-length, expressed from plasmid pPEX in COS-7 cells) (protein)
# chain: MEAETGSSVETGKKANRGTRIALVVFVGGTLVLGTILFLVSQGLLSLQAKQEYCLKPECIEAAAAILSKVNLSVDPCDNFFRFACDGWISNNPIPEDMPSYGVYPWLRHNVDLKLKELLEKSISRRRDTEAIQKAKILYSSCMNEKAIEKADGKPLLHILRHSPFRWPVLESNIGPEGVWSERKFSLLQTLATFRGQYSNSVFIRLYVSPDDKASNEHILKLDQATLSLAVREDYLDNSTEAKSYRDALYKFMVDTAVLLGANSSRAEHDMKSVLRLEIKIAEIMIPHENRTSEAMYNKMNISELSAMIPQFDWLGYIKKVIDTRLYPHLKDISPSENVVVRVPQYFKDLFRILGSERKKTIDNYLVWRMVYSRIPNLSRRFQYRWLEFSRVIQGTTTLLPQRDKCVNFIESALPYVVGKMFVDVYFQEDKKEMMEELVEGVRWAFIDMLEKENEWMDAGTKRKAKEKARAVLAKVGYPEFIMNDTHVNEDLKAIKFSEADYFGNVLQTRKYLAQSDFFWLRKAVPKTEWFTNPTTVNAFYSASTNQIRFPAGELQKPFFWGTEYPRSLSYGAIGVIVGHEFTHGFDNNGRKYDKNGNLDPWWSTESEEKFKEKTKCMINQYSNYYWKKAGLNVKGKRTLGENIADNGGLREAFRAYRKWINDRRQGLEEPLLPGITFTNNQLFFLSYAHVRCNSYRPEAAREQVQIGAHSPPQFRVNGAISNFEEFQKAFNCPPNSTMNRGMDSCRLW
# B2: recombinant human NEP (neprilysin, expressed from human NEP cDNA in COS-7 cells) (protein)
# chain: MESQMDITDINTPKPKKKQRWTPLEISLSVLVLLLTIIAVTMIALYATYDDGICKSSDCIKSAARLIQNMDATTEPCTDFFKYACGGWLKRNVIPETSSRYGNFDILRDELEVVLKDVLQEPKTEDIVAVQKAKALYRSCINESAIDSRGGEPLLKLLPDIYGWPVATENWEQKYGASWTAEKAIAQLNSKYGKKVLINLFVGTDDKNSVNHVIHIDQPRLGLPSRDYYECTGIYKEACTAYVDFMISVARLIRQEERLPIDENQLALEMNKVMELEKEIANATAKPEDRNDPMLLYNKMTLAQIQNNFSLEINGKPFSWLNFTNEIMSTVNISITNEEDVVVYAPEYLTKLKPILTKYSARDLQNLMSWRFIMDLVSSLSRTYKESRNAFRKALYGTTSETATWRRCANYVNGNMENAVGRLYVEAAFAGESKHVVEDLIAQIREVFIQTLDDLTWMDAETKKRAEEKALAIKERIGYPDDIVSNDNKLNNEYLELNYKEDEYFENIIQNLKFSQSKQLKKLREKVDKDEWISGAAVVNAFYSSGRNQIVFPAGILQPPFFSAQQSNSLNYGGIGMVIGHEITHGFDDNGRNFNKDGDLVDWWTQQSASNFKEQSQCMVYQYGNFSWDLAGGQHLNGINTLGENIADNGGLGQAYRAYQNYIKKNGEEKLLPGLDLNHKQLFFLNFAQVWCGTYRPEYAVNSIKTDVHSPGNFRIIGTLQNSAEFSEAFHCRKNSYMNPEKKCRVW
# Target: [D-Ala^2,Leu^5]enkephalin
row,Protein,"production of Tyr-D-Ala-Gly from the substrate, HPLC"
1,B1,production of Tyr-D-Ala-Gly from the substrate was evident only in NEP-expressing membrane preparations
2,B2,production of Tyr-D-Ala-Gly from the substrate was evident only in NEP-expressing membrane preparations
